For one assay, the target named is T1, recombinant human αvβ3 (human, UniProt P06756 31-992; P05106 27-718).
T1 construct: Bought from R&D Systems
Kind of assay: ELISA on coated recombinant integrin. As to the method:
(§1) 96-well Maxisorb plates (Nunc) were coated overnight at 4° C. with 1 ug/ml of recombinant human αvβ1, αvβ3, αvβ5, αvβ6 and αvβ8 (R&D Systems, MN) diluted in 50 mM carbonate buffer (Sigma, MO). Plates were washed with PBS+0.05% Tween 20 (PBS-T). Wash buffer was removed and plates were blocked for 2 hours at room temperature in TBS blocking buffer (TBS, 0.05% Tween 20, 1% BSA). Plates were washed and then incubated for 2 hours with humanized 2A2 antibody diluted in TBS binding buffer (TBS, 0.05% Tween 20, 1% BSA, 1 mM MnCl₂) at concentrations that ranged from 1 pM-67 nM (10 ug/ml). Plates were washed, incubated for 1 hour with 1:5000 dilution of anti-human Fc-HRP (Jackson ImmunoResearch, PA), washed, and then incubated with TMB substrate for 5 minutes. The reaction was stopped with 1 M HCl. Absorbance at 450 nm was read using a Fusion HT plate reader (Perkin Elmer, Waltham, MA).
On the technique in general: An ELISA detects its analyte on a solid surface through an enzyme-linked reagent.

A further assay addresses T2, recombinant human αvβ5 (human, UniProt P06756 31-992; P18084 24-719).
T2 construct: Bought from R&D Systems
As to the kind of experiment: ELISA on coated recombinant integrin. As to the method: as §1

A further assay addresses T3, recombinant human αvβ8 (human, UniProt P06756 31-992; P26012 43-684).
T3 construct: Bought from R&D Systems
Kind of assay: ELISA on coated recombinant integrin. On the procedure: as §1

Assay [1] has as its target T4, recombinant human αvβ6 (R&D Systems) (human, UniProt P06756 31-992; P18564 22-707).
T4 construct: Bought from R&D Systems, coated on the ELISA plate
As to the kind of experiment: ELISA on coated recombinant integrin. On the procedure:
as §1

In a further assay the target is T5, recombinant human αvβ1 (human, UniProt P06756 31-992; P05556 21-728).
T5 construct: Bought from R&D Systems
As to the kind of experiment: ELISA on coated recombinant integrin. As to the method:
as §1

The target of assay [2] is T6, human αvβ6 on 293F:huβ6 cells (human, UniProt P06756 31-1048; P18564 22-788).
T6 chain 1: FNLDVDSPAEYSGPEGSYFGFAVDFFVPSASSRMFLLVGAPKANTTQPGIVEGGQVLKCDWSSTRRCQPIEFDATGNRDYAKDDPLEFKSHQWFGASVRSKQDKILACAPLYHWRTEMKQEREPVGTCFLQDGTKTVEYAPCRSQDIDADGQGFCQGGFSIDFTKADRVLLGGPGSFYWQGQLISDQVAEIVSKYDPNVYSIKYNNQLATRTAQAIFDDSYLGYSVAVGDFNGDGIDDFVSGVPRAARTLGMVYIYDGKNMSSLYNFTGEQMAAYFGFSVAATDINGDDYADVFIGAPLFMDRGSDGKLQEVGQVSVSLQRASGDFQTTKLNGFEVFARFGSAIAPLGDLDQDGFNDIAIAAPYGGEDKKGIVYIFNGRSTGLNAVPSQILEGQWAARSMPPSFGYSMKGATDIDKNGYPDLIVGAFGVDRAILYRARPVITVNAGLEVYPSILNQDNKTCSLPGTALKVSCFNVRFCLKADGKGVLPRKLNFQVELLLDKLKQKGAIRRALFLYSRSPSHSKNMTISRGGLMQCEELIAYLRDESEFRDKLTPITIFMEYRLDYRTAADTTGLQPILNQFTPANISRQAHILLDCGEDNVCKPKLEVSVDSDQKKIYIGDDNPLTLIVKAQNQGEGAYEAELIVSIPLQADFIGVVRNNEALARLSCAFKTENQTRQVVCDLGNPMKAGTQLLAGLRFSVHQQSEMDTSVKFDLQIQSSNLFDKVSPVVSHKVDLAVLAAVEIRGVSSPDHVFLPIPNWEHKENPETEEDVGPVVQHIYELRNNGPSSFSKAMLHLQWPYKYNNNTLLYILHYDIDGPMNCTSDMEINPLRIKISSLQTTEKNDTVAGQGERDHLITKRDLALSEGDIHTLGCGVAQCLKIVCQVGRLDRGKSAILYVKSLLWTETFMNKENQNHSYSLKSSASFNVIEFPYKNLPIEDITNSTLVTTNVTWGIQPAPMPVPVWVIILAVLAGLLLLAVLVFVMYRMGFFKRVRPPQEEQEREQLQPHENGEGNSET
T6 chain 2: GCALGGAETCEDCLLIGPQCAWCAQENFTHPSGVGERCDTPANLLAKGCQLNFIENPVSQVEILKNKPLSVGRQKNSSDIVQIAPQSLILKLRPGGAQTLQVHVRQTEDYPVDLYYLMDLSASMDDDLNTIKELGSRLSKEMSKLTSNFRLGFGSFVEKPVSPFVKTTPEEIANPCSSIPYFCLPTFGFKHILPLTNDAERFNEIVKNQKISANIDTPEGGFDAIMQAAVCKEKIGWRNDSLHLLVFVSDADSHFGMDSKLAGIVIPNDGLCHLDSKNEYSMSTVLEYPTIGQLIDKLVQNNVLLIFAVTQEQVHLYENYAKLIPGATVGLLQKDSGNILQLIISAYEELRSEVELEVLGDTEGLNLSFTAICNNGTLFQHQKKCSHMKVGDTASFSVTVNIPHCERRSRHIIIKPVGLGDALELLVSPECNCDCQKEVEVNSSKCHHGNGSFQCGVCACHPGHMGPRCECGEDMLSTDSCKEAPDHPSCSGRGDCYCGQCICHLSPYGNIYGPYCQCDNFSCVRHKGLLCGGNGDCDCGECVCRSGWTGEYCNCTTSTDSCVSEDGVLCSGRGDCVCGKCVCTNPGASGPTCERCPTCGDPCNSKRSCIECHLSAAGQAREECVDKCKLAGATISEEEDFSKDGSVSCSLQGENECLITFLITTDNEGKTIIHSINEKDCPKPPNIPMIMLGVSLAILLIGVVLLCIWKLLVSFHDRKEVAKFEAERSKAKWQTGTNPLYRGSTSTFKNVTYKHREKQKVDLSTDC
Kind of assay: competition binding on 293F cells.

For assay [3], the target named is T6, human αvβ6 on 293F:huβ6 cells. As to the kind of experiment: competition binding on 293F cells; 2nM m2A2-AF647 competitor.

T1 sequence (P05106 27-718 limits assumed, one chain of several): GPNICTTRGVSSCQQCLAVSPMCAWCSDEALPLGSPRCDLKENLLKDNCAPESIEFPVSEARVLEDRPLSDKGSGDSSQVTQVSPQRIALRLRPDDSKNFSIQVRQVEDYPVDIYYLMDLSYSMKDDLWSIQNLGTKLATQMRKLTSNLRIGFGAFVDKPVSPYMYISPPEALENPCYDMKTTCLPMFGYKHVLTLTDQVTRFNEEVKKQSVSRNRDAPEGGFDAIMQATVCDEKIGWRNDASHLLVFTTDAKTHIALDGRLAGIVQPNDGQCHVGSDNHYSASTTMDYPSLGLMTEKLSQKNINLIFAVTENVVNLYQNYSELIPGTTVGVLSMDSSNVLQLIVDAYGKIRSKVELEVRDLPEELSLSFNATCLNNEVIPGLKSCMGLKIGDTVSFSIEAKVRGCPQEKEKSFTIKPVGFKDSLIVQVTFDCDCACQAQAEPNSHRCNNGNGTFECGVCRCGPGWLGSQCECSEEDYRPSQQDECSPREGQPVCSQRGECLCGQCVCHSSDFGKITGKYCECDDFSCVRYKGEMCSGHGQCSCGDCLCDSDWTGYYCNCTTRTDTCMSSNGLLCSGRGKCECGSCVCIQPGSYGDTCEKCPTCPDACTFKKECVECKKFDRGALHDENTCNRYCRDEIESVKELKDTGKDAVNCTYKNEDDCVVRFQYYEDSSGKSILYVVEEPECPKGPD
T3 sequence (P26012 43-684 limits assumed, one chain of several): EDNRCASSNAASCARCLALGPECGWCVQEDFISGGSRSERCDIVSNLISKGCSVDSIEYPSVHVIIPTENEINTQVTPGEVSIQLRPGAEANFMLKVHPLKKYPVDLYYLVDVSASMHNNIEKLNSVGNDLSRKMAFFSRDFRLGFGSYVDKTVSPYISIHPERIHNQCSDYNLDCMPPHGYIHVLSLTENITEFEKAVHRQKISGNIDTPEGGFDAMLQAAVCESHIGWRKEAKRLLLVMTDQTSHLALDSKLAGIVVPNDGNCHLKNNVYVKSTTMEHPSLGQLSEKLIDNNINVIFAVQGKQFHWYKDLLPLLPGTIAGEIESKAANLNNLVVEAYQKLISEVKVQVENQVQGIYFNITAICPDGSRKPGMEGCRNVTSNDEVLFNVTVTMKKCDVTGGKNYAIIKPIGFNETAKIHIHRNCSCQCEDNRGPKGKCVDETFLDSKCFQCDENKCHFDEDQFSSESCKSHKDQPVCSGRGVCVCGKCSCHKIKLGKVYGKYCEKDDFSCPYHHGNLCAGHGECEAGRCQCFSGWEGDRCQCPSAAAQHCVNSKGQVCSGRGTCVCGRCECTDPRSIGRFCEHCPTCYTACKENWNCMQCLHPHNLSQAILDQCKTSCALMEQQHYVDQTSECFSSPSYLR
T5 sequence (P05556 21-728 limits assumed, one chain of several): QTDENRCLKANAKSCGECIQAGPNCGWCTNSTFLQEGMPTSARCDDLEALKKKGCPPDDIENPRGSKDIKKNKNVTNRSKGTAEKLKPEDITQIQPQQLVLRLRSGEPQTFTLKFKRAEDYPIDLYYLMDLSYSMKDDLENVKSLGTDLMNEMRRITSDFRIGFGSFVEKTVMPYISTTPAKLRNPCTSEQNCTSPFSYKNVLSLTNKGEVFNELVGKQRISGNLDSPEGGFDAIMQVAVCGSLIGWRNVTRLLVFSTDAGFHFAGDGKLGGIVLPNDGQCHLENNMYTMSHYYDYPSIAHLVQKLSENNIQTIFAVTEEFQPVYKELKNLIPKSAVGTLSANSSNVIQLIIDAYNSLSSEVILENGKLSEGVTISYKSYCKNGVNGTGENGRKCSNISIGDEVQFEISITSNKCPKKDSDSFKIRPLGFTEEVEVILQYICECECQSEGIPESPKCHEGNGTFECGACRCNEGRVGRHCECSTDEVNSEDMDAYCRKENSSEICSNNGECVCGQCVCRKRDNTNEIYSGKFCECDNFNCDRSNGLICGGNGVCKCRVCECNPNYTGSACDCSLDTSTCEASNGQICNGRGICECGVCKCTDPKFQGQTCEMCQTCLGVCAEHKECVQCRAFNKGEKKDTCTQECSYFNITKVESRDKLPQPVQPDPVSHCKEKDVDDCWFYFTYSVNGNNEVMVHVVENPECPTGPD
T2 sequence (P18084 24-719 limits assumed, one chain of several): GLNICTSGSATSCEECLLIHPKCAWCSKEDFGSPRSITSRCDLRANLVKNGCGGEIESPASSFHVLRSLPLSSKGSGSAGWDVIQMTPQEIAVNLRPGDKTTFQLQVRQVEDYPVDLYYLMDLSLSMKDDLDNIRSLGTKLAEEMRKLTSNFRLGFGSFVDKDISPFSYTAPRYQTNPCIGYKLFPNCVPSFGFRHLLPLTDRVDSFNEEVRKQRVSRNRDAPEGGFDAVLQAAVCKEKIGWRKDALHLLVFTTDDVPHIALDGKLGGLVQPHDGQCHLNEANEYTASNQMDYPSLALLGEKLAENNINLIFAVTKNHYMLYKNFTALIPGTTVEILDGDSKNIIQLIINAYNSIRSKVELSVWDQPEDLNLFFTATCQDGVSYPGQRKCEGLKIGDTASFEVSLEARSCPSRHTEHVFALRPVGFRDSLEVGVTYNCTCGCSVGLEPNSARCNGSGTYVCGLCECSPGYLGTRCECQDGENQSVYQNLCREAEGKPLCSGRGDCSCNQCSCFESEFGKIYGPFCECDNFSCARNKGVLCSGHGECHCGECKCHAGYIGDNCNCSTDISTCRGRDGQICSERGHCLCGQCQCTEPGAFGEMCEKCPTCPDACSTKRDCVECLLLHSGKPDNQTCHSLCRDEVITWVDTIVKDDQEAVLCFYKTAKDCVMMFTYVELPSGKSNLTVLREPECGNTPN

B1: h2A2 HCLG humanized antibody (antibody, human IgG1, kappa, V domains shown)
VH: QFQLVQSGAEVKKPGASVKVSCKASGYSFTDYNVNWVRQAPGQGLEWIGVINPKYGTTRYNQKFKGRATLTVDKSTSTAYMELSSLRSEDTAVYYCTRGLNAWDYWGQGTLVTVSS
VL: DIQMTQSPSSLSASVGDRVTITCGASENIYGALNWYQQKPGKAPKLLIYGATNLEDGVPSRFSGSGSGRDYTFTISSLQPEDIATYYCQNVLTTPYTFGQGTKLEIKR
notes: Labelled with AlexaFluor-647 in the saturation assay; also called humanized 2A2 HCLG
As usually defined, the EC50 is the concentration needed to bring the measured effect to its halfway point. Low values mean a more potent agent, high ones a less potent agent. As for B1, the binding result with recombinant human αvβ3 is “no binding (tested: 1 pM-67 nM (10 ug/ml))”; with recombinant human αvβ5, “no binding (tested: 1 pM-67 nM (10 ug/ml))”; with recombinant human αvβ8, “no binding (tested: 1 pM-67 nM (10 ug/ml))”; in assay [1], “binds”; in the assay with recombinant human αvβ1 it was “no binding (tested: 1 pM-67 nM (10 ug/ml))”. The results for the EC50 in assay [2] and in assay [3] were 3 nM and 1 nM, respectively.

Source of the values: patent US20250242041A1 (Seagen, published 2025).
